Data reported in patent US20200317768A1 (published 2020).
Where a chain is given by its changes, count along the chain named.

B1: M103205H795-MY209/M103202L889-SK1 (antibody, human IgG1, kappa)
heavy: QVTLKESGPVLVKPTETLTLTCTVSGIDLSHDDISWVRQAPGKGLEWVGIISYAGSTYYASWAKGRLTISKDTSKNQVVLTMTNMDPVDTATYYCARGVPAYSHGGDLWGQGTLVTVSSASTKGPSVFPLAPSSKSTSGGTAALGCLVKDYFPEPVTVSWNSGALTSGVHTFPAVLQSSGLYSLSSVVTVPSSSLGTQTYICNVNHKPSNTKVDKKVEPKSCDKTHTCPPCPAPELLNGPSVFLFPPKPKDTLMISRTPEVTCVVVDVSDEDPEVKFNWYVDGVEVHNAKTKPREELYNSTYRVVSVLTVLHQDWLNGKEYKCKVSNTALPKPIEKTISKAKGQPREPQVYTLPPSREEMTKNQVSLTCLVKGFYPSDIAVEWESNGQPENNYKTTPPVLDSDGSFFLYSKLTVDKSRWQQGNVFSCSVMHEALHNHYTQKSLSLSP
light: DIVMTQSPATLSLSPGERATLSCTSSQSVYHANWLSWFQQKPGQPPKLLIYWASTLAYGVPSRFSGSGSGTDFTLTISSLQPEDAATYYCAGGYGGGRYAFGQGTKVEIKRTVAAPSVFIFPPSDEQLKSGTASVVCLLNNFYPREAKVQWKVDNALQSGNSQESVTEQDSKDSTYSLSSTLTLSKADYEKHKVYACEVTHQGLSSPVTKSFNRGEC
notes: Substitutions introduced into M103205H795-SG1, expressed with M103202L889-SK1 as light chain; EU numbering
B2: M103205H795-MY283/M103202L889-SK1 (antibody, human IgG1, kappa)
heavy: B1 heavy with N238T, T328K
light: B1 light
notes: as for B1
B3: M103205H795-MY528/M103202L889-SK1 (antibody, human IgG1, kappa)
heavy: B1 heavy with L236W, N238T, L297Q, T328K
light: B1 light
notes: as for B1
B4: M103205H795-MY380/M103202L889-SK1 (antibody, human IgG1, kappa)
heavy: B1 heavy with D270E, L297Q, T328K, P398K
light: B1 light
notes: as for B1
B5: M103205H795-MY529/M103202L889-SK1 (antibody, human IgG1, kappa)
heavy: B1 heavy with L236W, N238T, T328K
light: B1 light
notes: as for B1
B6: M103205H795-MY392/M103202L889-SK1 (antibody, human IgG1, kappa)
heavy: B1 heavy with N238T, L297Q, S300L, T328K
light: B1 light
notes: as for B1
B7: M103205H795-MY388/M103202L889-SK1 (antibody, human IgG1, kappa)
heavy: B1 heavy with N238T, S241I, L297Q, T328K
light: B1 light
notes: as for B1
B8: M103205H795-MY340/M103202L889-SK1 (antibody, human IgG1, kappa)
heavy: B1 heavy with N238L, T328K, P398K
light: B1 light
notes: as for B1
B9: M103205H795-MY516/M103202L889-SK1 (antibody, human IgG1, kappa)
heavy: B1 heavy with N238T, S241V, S300L, T328K
light: B1 light
notes: as for B1
B10: M103205H795-MY386/M103202L889-SK1 (antibody, human IgG1, kappa)
heavy: B1 heavy with N238L
light: B1 light
notes: as for B1
B11: M103205H795-MY526/M103202L889-SK1 (antibody, human IgG1, kappa)
heavy: B1 heavy with A233T, N238T, S241V, T328K
light: B1 light
notes: as for B1
B12: M103205H795-MY520/M103202L889-SK1 (antibody, human IgG1, kappa)
heavy: B1 heavy with P234D, N238T, S241V, T328K
light: B1 light
notes: as for B1
B13: M103205H795-MY514/M103202L889-SK1 (antibody, human IgG1, kappa)
heavy: B1 heavy with N238T, S241V, L297Q, S300L, T328K
light: B1 light
notes: as for B1
B14: M103205H795-MY523/M103202L889-SK1 (antibody, human IgG1, kappa)
heavy: B1 heavy with A233G, N238T, S241V, T328K
light: B1 light
notes: as for B1
B15: M103205H795-MY524/M103202L889-SK1 (antibody, human IgG1, kappa)
heavy: B1 heavy with A233G, N238T, T328K
light: B1 light
notes: as for B1
B16: M103205H795-MY522/M103202L889-SK1 (antibody, human IgG1, kappa)
heavy: B1 heavy with A233G, N238T, S241V, L297Q, T328K
light: B1 light
notes: as for B1
B17: M103205H795-MY387/M103202L889-SK1 (antibody, human IgG1, kappa)
heavy: B1 heavy with N238T, S241V, L297Q, T328K
light: B1 light
notes: as for B1
B18: M103205H795-MY341/M103202L889-SK1 (antibody, human IgG1, kappa)
heavy: B1 heavy with N238L, P398K
light: B1 light
notes: as for B1
B19: M103205H795-MY525/M103202L889-SK1 (antibody, human IgG1, kappa)
heavy: B1 heavy with A233T, N238T, S241V, L297Q, T328K
light: B1 light
notes: as for B1
B20: M103205H795-MY342/M103202L889-SK1 (antibody, human IgG1, kappa)
heavy: B1 heavy with N238L, T328K, P398M
light: B1 light
notes: as for B1
B21: M103205H795-MY527/M103202L889-SK1 (antibody, human IgG1, kappa)
heavy: B1 heavy with A233T, N238T, T328K
light: B1 light
notes: as for B1
B22: M103205H795-MY532/M103202L889-SK1 (antibody, human IgG1, kappa)
heavy: B1 heavy with L236W, N238T, S241V, L297Q, T328K
light: B1 light
notes: as for B1
B23: M103205H795-MY400/M103202L889-SK1 (antibody, human IgG1, kappa)
heavy: B1 heavy with N238T, L297Q, T328K, P333E
light: B1 light
notes: as for B1
B24: M103205H795-MY339/M103202L889-SK1 (antibody, human IgG1, kappa)
heavy: B1 heavy with N238L, L297Q, P398K
light: B1 light
notes: as for B1
B25: M103205H795-MY389/M103202L889-SK1 (antibody, human IgG1, kappa)
heavy: B1 heavy with N238T, S241L, L297Q, T328K
light: B1 light
notes: as for B1
B26: M103205H795-MY515/M103202L889-SK1 (antibody, human IgG1, kappa)
heavy: B1 heavy with N238T, S300L, T328K
light: B1 light
notes: as for B1
B27: M103205H795-MY531/M103202L889-SK1 (antibody, human IgG1, kappa)
heavy: B1 heavy with L236W, N238T, L297Q
light: B1 light
notes: as for B1
B28: M103205H795-MY521/M103202L889-SK1 (antibody, human IgG1, kappa)
heavy: B1 heavy with P234D, N238T, T328K
light: B1 light
notes: as for B1
B29: M103205H795-MY530/M103202L889-SK1 (antibody, human IgG1, kappa)
heavy: B1 heavy with N238T, L297Q
light: B1 light
notes: as for B1

Target: T1, cynomolgus monkey FcγRIIa2 extracellular domain with C-terminal His-tag (cynomolgus monkey)
T1 construct: also called cyno FcgRIIa2; cynoFcγRIIa2
T1 chain: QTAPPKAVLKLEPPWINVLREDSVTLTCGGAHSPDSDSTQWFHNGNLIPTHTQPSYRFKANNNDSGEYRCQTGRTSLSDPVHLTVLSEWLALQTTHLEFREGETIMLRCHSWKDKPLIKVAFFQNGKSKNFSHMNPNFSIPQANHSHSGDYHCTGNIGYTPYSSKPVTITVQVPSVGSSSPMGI
Assay: SPR (BIACORE); KD of SG1 / KD of variant;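 note: relative to parent M103205H795-SG1 carrying the SG1 human heavy chain constant region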

Binder | KD fold (SG1 = 1)
B1 | 7.4 fold
B2 | 3.2 fold
B3 | 3.4 fold
B4 | 5.1 fold
B5 | 3.6 fold
B6 | 2.2 fold
B7 | 3 fold
B8 | 1 fold
B9 | 3.9 fold
B10 | 0.9 fold
B11 | 4.3 fold
B12 | 2.2 fold
B13 | 3.2 fold
B14 | 3.9 fold
B15 | 4.6 fold
B16 | 4.3 fold
B17 | 2.7 fold
B18 | 1.8 fold
B19 | 4.6 fold
B20 | 0.6 fold
B21 | 3.5 fold
B22 | 8.5 fold
B23 | 2.3 fold
B24 | 1.7 fold
B25 | 3.2 fold
B26 | 3.2 fold
B27 | 3.5 fold
B28 | 1.5 fold
B29 | 4.6 fold
